US20050037448A1

Legend:
des-64,65-proinsulin [1] = biological target: des-64,65-proinsulin (UniProt P01308); assay: competitive RIA, PEP001-coated tubes, 125I-Tyr-C-peptide; serum E1 overloaded with 0.16 pmol/ml des-64,65-proinsulin; no AC1D4
des-31,32-proinsulin [2] = biological target: des-31,32-proinsulin (UniProt P01308); assay: competitive RIA, PEP001-coated tubes, 125I-Tyr-C-peptide; serum E2 overloaded with 3.33 pmol/ml des-31,32-proinsulin; no AC1D4
des-31,32-proinsulin [3] = biological target: des-31,32-proinsulin (UniProt P01308); assay: competitive RIA, PEP001-coated tubes, 125I-Tyr-C-peptide; serum E2 overloaded with 0.67 pmol/ml des-31,32-proinsulin; no AC1D4
des-31,32-proinsulin [4] = biological target: des-31,32-proinsulin (UniProt P01308); assay: competitive RIA, PEP001-coated tubes, 125I-Tyr-C-peptide; serum E2 overloaded with 0.16 pmol/ml des-31,32-proinsulin; no AC1D4
des-64,65-proinsulin [5] = biological target: des-64,65-proinsulin (UniProt P01308); assay: competitive RIA, PEP001-coated tubes, 125I-Tyr-C-peptide; serum E2 overloaded with 3.33 pmol/ml des-64,65-proinsulin; no AC1D4
human proinsulin (human) [6] = biological target: human proinsulin (human) (UniProt P01308); assay: competitive RIA, PEP001-coated tubes, 125I-Tyr-C-peptide; serum E1 overloaded with 0.16 pmol/ml proinsulin; competitor AC1D4 20 µg/ml
des-64,65-proinsulin [7] = biological target: des-64,65-proinsulin (UniProt P01308); assay: competitive RIA, PEP001-coated tubes, 125I-Tyr-C-peptide; serum E1 overloaded with 0.16 pmol/ml des-64,65-proinsulin; competitor AC1D4 20 µg/ml
human proinsulin (human) [8] = biological target: human proinsulin (human) (UniProt P01308); assay: sandwich immunoenzymatic C-peptide assay: PEP001 beads, goat polyclonal conjugate; competitors AC1D4 + BC9B6 in equal quantities, 40 µg/ml
des-31,32-proinsulin [9] = biological target: des-31,32-proinsulin (UniProt P01308); assay: as above
des-64,65-proinsulin [10] = biological target: des-64,65-proinsulin (UniProt P01308); assay: as above
human proinsulin (human) [11] = biological target: human proinsulin (human) (UniProt P01308); assay: sandwich immunoenzymatic C-peptide assay: PEP001 beads, goat polyclonal anti-C-peptide-alkaline phosphatase; competitor BC9B6 20 µg/ml
des-31,32-proinsulin [12] = biological target: des-31,32-proinsulin (UniProt P01308); assay: as above
des-64,65-proinsulin [13] = biological target: des-64,65-proinsulin (UniProt P01308); assay: as above
human proinsulin (human) [14] = biological target: human proinsulin (human) (UniProt P01308); assay: competitive RIA, PEP001-coated tubes, 125I-Tyr-C-peptide; serum E1 overloaded with 0.67 pmol/ml proinsulin; competitor AC1D4 20 µg/ml
des-31,32-proinsulin [15] = biological target: des-31,32-proinsulin (UniProt P01308); assay: competitive RIA, PEP001-coated tubes, 125I-Tyr-C-peptide; serum E1 overloaded with 0.16 pmol/ml des-31,32-proinsulin; competitor AC1D4 20 µg/ml
human proinsulin (human) [16] = biological target: human proinsulin (human) (UniProt P01308); assay: sandwich immunoenzymatic C-peptide assay: PEP001 beads, goat polyclonal conjugate; no AC1D4 or BC9B6
des-31,32-proinsulin [17] = biological target: des-31,32-proinsulin (UniProt P01308); assay: as above
des-64,65-proinsulin [18] = biological target: des-64,65-proinsulin (UniProt P01308); assay: as above
des-31,32-proinsulin [19] = biological target: des-31,32-proinsulin (UniProt P01308); assay: competitive RIA, PEP001-coated tubes, 125I-Tyr-C-peptide; serum E1 overloaded with 3.33 pmol/ml des-31,32-proinsulin; competitor AC1D4 20 µg/ml
des-64,65-proinsulin [20] = biological target: des-64,65-proinsulin (UniProt P01308); assay: competitive RIA, PEP001-coated tubes, 125I-Tyr-C-peptide; serum E2 overloaded with 0.67 pmol/ml des-64,65-proinsulin; competitor AC1D4 20 µg/ml
human proinsulin (human) [21] = biological target: human proinsulin (human) (UniProt P01308); assay: competitive RIA, PEP001-coated tubes, 125I-Tyr-C-peptide; serum E2 overloaded with 3.33 pmol/ml proinsulin; no AC1D4
human proinsulin (human) [22] = biological target: human proinsulin (human) (UniProt P01308); assay: sandwich immunoenzymatic C-peptide assay: PEP001 beads, goat polyclonal conjugate; competitors AC1D4 + BC9B6 in equal quantities, 20 µg/ml
des-31,32-proinsulin [23] = biological target: des-31,32-proinsulin (UniProt P01308); assay: as above
des-64,65-proinsulin [24] = biological target: des-64,65-proinsulin (UniProt P01308); assay: as above
human proinsulin (human) [25] = biological target: human proinsulin (human) (UniProt P01308); assay: competitive RIA, PEP001-coated tubes, 125I-Tyr-C-peptide; serum E2 overloaded with 0.67 pmol/ml proinsulin; no AC1D4
des-64,65-proinsulin [26] = biological target: des-64,65-proinsulin (UniProt P01308); assay: competitive RIA, PEP001-coated tubes, 125I-Tyr-C-peptide; serum E2 overloaded with 0.16 pmol/ml des-64,65-proinsulin; no AC1D4
des-64,65-proinsulin [27] = biological target: des-64,65-proinsulin (UniProt P01308); assay: competitive RIA, PEP001-coated tubes, 125I-Tyr-C-peptide; serum E1 overloaded with 3.33 pmol/ml des-64,65-proinsulin; competitor AC1D4 20 µg/ml
des-64,65-proinsulin [28] = biological target: des-64,65-proinsulin (UniProt P01308); assay: competitive RIA, PEP001-coated tubes, 125I-Tyr-C-peptide; serum E1 overloaded with 3.33 pmol/ml des-64,65-proinsulin; no AC1D4

## PEP001 anti-C-peptide monoclonal antibody
des-64,65-proinsulin [1]
  Increase after overload (%): 6%
des-31,32-proinsulin [2]
  Increase after overload (%): 59%
des-31,32-proinsulin [3]
  Increase after overload (%): 8%
des-31,32-proinsulin [4]
  Increase after overload (%): 10%
des-64,65-proinsulin [5]
  Increase after overload (%): 55%
Human proinsulin (human) [6]
  Increase after overload (%): 0%
des-64,65-proinsulin [7]
  Increase after overload (%): 10%
Human proinsulin (human) [8]
  percentage of cross reaction: 18%
des-31,32-proinsulin [9]
  percentage of cross reaction: 13%
des-64,65-proinsulin [10]
  percentage of cross reaction: 7%
Human proinsulin (human) [11]
  percentage of cross reaction: 8%
des-31,32-proinsulin [12]
  percentage of cross reaction: 115%
des-64,65-proinsulin [13]
  percentage of cross reaction: 8%
Human proinsulin (human) [14]
  Increase after overload (%): 6%
des-31,32-proinsulin [15]
  Increase after overload (%): 5%
Human proinsulin (human) [16]
  percentage of cross reaction: 92%
des-31,32-proinsulin [17]
  percentage of cross reaction: 108%
des-64,65-proinsulin [18]
  percentage of cross reaction: 94%
des-31,32-proinsulin [19]
  Increase after overload (%): 21%
des-64,65-proinsulin [20]
  Increase after overload (%): 18%
Human proinsulin (human) [21]
  Increase after overload (%): 54%
Human proinsulin (human) [22]
  percentage of cross reaction: 2%
des-31,32-proinsulin [23]
  percentage of cross reaction: 19%
des-64,65-proinsulin [24]
  percentage of cross reaction: 10%
Human proinsulin (human) [25]
  Increase after overload (%): 12%
des-64,65-proinsulin [26]
  Increase after overload (%): 0%
des-64,65-proinsulin [27]
  Increase after overload (%): 242%
des-64,65-proinsulin [28]
  Increase after overload (%): 267%
